Assay results published in the RNAGym collection of RNA variant scans (doi:10.7554/elife.80360).

B1: HDV Ribozyme (parent)
chain: GGCCGGCAUGGUCCCAGCCUCCUCGCUGGCGCCGGCUGGGCAACAUUCCGAGGGGACCGUCCCCUCGGUAAUGGCGAAUGGGACCCA

Variants of: B1
Experiment: self-cleavage, relative activity (ratio to wild type); higher = more cleavage; co-transcriptional

Row | Variant | self-cleavage
1 | GGCCGGCAUGGUCCCAGCCUCCUCGCUGGCACCGGCUGGGCAACAUUCCGAGGGGACCGUCCCCUCGGUAAGGGCGAAUGGGACCCA [G31A U72G] | 0.145
2 | GGCCGGCAUGGUCCCAGCCUCCUCGCUGGCGCCGGCUGGGCAACAUUACGAGGGGACCGUCCCCUCGGUAAUGGCGAAUGCGACCCA [C48A G81C] | 0.193
3 | GGCCGGCAUGGUCCCAGCCUCCUCGCUUGCGCCGGCUGGGCAACAUUCCGAGGGGACCGUCCUCUCGGUAAUGGCGAAUGGGACCCA [G28U C63U] | 0.12
4 | GGCCGGCAUGGUCCCAGCCUCCUCGCUGGCGCCGGCUGGGCUACAUUUCGAGGGGACCGUCCCCUCGGUAAUGGCGAAUGGGACCCA [A42U C48U] | 0.506
5 | GGCCGGCAUGGUACCAGCCUCCUCGCUGGCGCCGGCUGGGCAACAUUCCGAGGGGAGCGUCCCCUCGGUAAUGGCGAAUGGGACCCA [C13A C57G] | 0.19
6 | GGCCGGCAUGGACCCAGCCUCCUCGCUGGCGCCUGCUGGGCAACAUUCCGAGGGGACCGUCCCCUCGGUAAUGGCGAAUGGGACCCA [U12A G34U] | 0.142
7 | GGCCGGGAUGGUCCCAGCCUCCUCGCUGGCGCCGGCUGGGCAACAUUCCGAGGGGACCGUCCCCUCGGUAAUGGCGAUUGGGACCCA [C7G A78U] | 0.0791
8 | GGCCGGCAUGGUCCCAGCCUCCUCGCUGGCGCCGGCUGGGCAACAUUCCGAGGGGACCGUCCCCACGGUAAUGGCGAAUUGGACCCA [U65A G80U] | 0.279
9 | GGCCGGCAUGGUUCCAGCCUCCUCGCUGGCGCCGGCUGGGCAACAUUCGGAGGGGACCGUCCCCUCGGUAAUGGCGAAUGGGACCCA [C13U C49G] | 0.426
10 | AGCCGGCAUGGUCCCAGCCUCCUCGCUGGCGCCGGCUCGGCAACAUUCCGAGGGGACCGUCCCCUCGGUAAUGGCGAAUGGGACCCA [G1A G38C] | 0.0405
11 | GGCCGGCAUGGUCCCAGCCUCCUCGCUGGCGCCGGCUGGGCAACUUUCCGAGGGGACCGUCCCCUCUGUAAUGGCGAAUGGGACCCA [A45U G67U] | 0.801
12 | GGCCGGCAUGUUCCCAGCCUCCUCGCUGGCGCCGGCUGGGCAACAUUCCGAGGGGACCGUCCCUUCGGUAAUGGCGAAUGGGACCCA [G11U C64U] | 0.519
13 | GGCCGGCAUGGUCCCUGCCUCCUCGCUGGCGCCGGCUGGGCAACAUUCCGAGGGGACCGUCCCCUCGGUAAUGGAGAAUGGGACCCA [A16U C75A] | 0.111
14 | GGCCGGCAUGGUCCCAGCCUCCACGCUGGCGCCGGCUGGGCAACAUUCCGAGGGGACCGUCCCCUCGGUGAUGGCGAAUGGGACCCA [U23A A70G] | 0.931
15 | GGCCGGCAUGGUUCCAGCCUCCUCGCUGGCGCCGGCUUGGCAACAUUCCGAGGGGACCGUCCCCUCGGUAAUGGCGAAUGGGACCCA [C13U G38U] | 0.149
16 | GGCCGGCAUGGGCCCAGCCUCCUCGCUGGCGCCGGCUGGGCAACAUUCUGAGGGGACCGUCCCCUCGGUAAUGGCGAAUGGGACCCA [U12G C49U] | 0.776
17 | GGCCGCCAUGGUCCCAGCCUCCUCGCUGGCGCCGGCUGGGCAACAUUACGAGGGGACCGUCCCCUCGGUAAUGGCGAAUGGGACCCA [G6C C48A] | 0.443
18 | GGCCGGCAUGGUCCCAGCCUCCUCGCUGGCGCCGGCUGGGCAACAUUCCGAGGGGACCGUCGCCUCGGUAAUGGGGAAUGGGACCCA [C62G C75G] | 0.26
19 | GGCCUGCAUGGUCCCAGCCUCCUCGCUGGCGCCGGCUGGGCAACAUUCCGUGGGGACCGUCCCCUCGGUAAUGGCGAAUGGGACCCA [G5U A51U] | 0.688
20 | GGCCGGCAUGGUCCCAGCCUCCUCGCUCGCGCCGGCUGGGCAACAGUCCGAGGGGACCGUCCCCUCGGUAAUGGCGAAUGGGACCCA [G28C U46G] | 0.0755
21 | GGCCGGCAUGUUCCCAGCCUCCUCACUGGCGCCGGCUGGGCAACAUUCCGAGGGGACCGUCCCCUCGGUAAUGGCGAAUGGGACCCA [G11U G25A] | 0
22 | GGCCAGCAUGGUUCCAGCCUCCUCGCUGGCGCCGGCUGGGCAACAUUCCGAGGGGACCGUCCCCUCGGUAAUGGCGAAUGGGACCCA [G5A C13U] | 0.107

Row | Variant | self-cleavage
23 | GGCCGGCAUGGUCCCAGCCUCCUCGCUGGCGACGGCUGGGCAACAUUCCGAGGGGACCGUCCCCUCGGUAAUGGCGACUGGGACCCA [C32A A78C] | 0.0665
24 | GGCCGGCAUGGUCCCAGCCUCCUCGCUGGCGCCGGCUGGGCAACAUUCCGAGGGUACCGUCCCCUCGGUAUUGGCGAAUGGGACCCA [G55U A71U] | 0.786
25 | GGCCGGCAUGGUCCCAGCCUCCUCGCUGGCGCCGGCUGGGCAACAUUCCGCGGGGACCGUCCCCUCGGUAAUGGCAAAUGGGACCCA [A51C G76A] | 1.08
26 | GGCCGGCAUGGACCCAGCCUCCUCGCUUGCGCCGGCUGGGCAACAUUCCGAGGGGACCGUCCCCUCGGUAAUGGCGAAUGGGACCCA [U12A G28U] | 0.181
27 | GGCCGGCAUGGUCCUAGCCUCCUCGCUGGCGCCGUCUGGGCAACAUUCCGAGGGGACCGUCCCCUCGGUAAUGGCGAAUGGGACCCA [C15U G35U] | 0.252
28 | GGCUGGCAUGGUCCCAGCCUCCUCGCUGGCGCCGGCUGGGCAACAUUCCGAGGGGACCGUCCCCACGGUAAUGGCGAAUGGGACCCA [C4U U65A] | 0.727
29 | GGCCGGUAUGGUCCCAGCCUCCUCGCUGGCGCCGGCAGGGCAACAUUCCGAGGGGACCGUCCCCUCGGUAAUGGCGAAUGGGACCCA [C7U U37A] | 0.0739
30 | GGCCGGCAUGGUCCCAGCCUCCUCGCUGGCGCCGGCUGGGCAACAUUCCAAGGGGACCGUCCCCUCGGUAAUGGCGAAUGGGUCCCA [G50A A83U] | 0.486
31 | GGCCGGCAUGGUCCCAGCCUCCUCGCUGGCGCCGGCUGAGCAACAUUCCGAGGGGACCGUCCCCUCGGUAAUGGCGAGUGGGACCCA [G39A A78G] | 0.131
32 | GGCCGGCAUGGUCCCAGCCUCCUCGCUGGCGCCGACUGGGCAACAUUCCGAGGGGACCGUCCCCUCGGUAAUGGCGAAUGGCACCCA [G35A G82C] | 0.266
33 | GGCCGGCAUGGUCCCAGCCUCCUCGCUGGCGCCGGCUGGGCGACAGUCCGAGGGGACCGUCCCCUCGGUAAUGGCGAAUGGGACCCA [A42G U46G] | 0.0875
34 | GGCCGGCAUGGUCCCAGCCUCCUCGCUGGCGCCGGCUGGGCAACAUUCCGAGGGGACCGUCCUCUCGGUAAUGGGGAAUGGGACCCA [C63U C75G] | 0.0755
35 | GGCCGGCAUGGUCCCAGCCUCCUCGCUGGCGCCGGCUGGGCAACAUUCCGAGGGGACCGUCCCCUCGAUAAUGGCGAAUGCGACCCA [G68A G81C] | 0.175
36 | GGCCGGCAUGGUCCCAGCCUCCUCGCUGUCGCCGGCUGGGCAACAUUCCGAGGGGACCGUCCCGUCGGUAAUGGCGAAUGGGACCCA [G29U C64G] | 0.0739
37 | GGCCGGCAUGGUCCCAGCCUCCUCGCUGGCGCCGGCUGGCCAACAUUCCGAGGGGACCAUCCCCUCGGUAAUGGCGAAUGGGACCCA [G40C G59A] | 0.179
38 | GGCCGGCAUGGUCUCAGCCUCCUUGCUGGCGCCGGCUGGGCAACAUUCCGAGGGGACCGUCCCCUCGGUAAUGGCGAAUGGGACCCA [C14U C24U] | 0.658
39 | GGCCUGCAUGGUCCCAGCCUCCUCGCUGGCGCCGGCUGGGCAACAUUCCGAGGGGACCGUCCCCUCGGUAAUGGCGAAUGCGACCCA [G5U G81C] | 0
40 | GGCCGGCAUGGUCCCAGCCUCCUCGCUGGCGCCGGCUGGGCAACAUUCCGAGGGGACCGUCCACUUGGUAAUGGCGAAUGGGACCCA [C63A C66U] | 0.814
41 | GGCCGGCAUGGUCCCAGCCUCCUCGCUGGCCCCGGCUGGGCAACAUUCCGAGGGGACCGUCCCCUCGGUAAUGGCGAAUGGGACUCA [G31C C85U] | 0.299
42 | GGCCGGCAUGGUCCCAGCCUCCUCGCUGGCGCCGGGUGGGCAACAUUACGAGGGGACCGUCCCCUCGGUAAUGGCGAAUGGGACCCA [C36G C48A] | 0.272
43 | GGCCGGCAUGGUCCCAGCCUCCUCGCUGGCGCCGGCUGGGCAACAUUCCGAGGGGACCAUCCCCUCGGUAAUGGCGAAUGGGACCCG [G59A A87G] | 1.04
44 | GGCCGGCAUGGUCCCAGCCCCCUCGCUGGCGCCGGCUGGGCAACAUUCCGAGGGGACCGUCCCCUCGGUAGUGGCGAAUGGGACCCA [U20C A71G] | 0.0978

Row | Variant | self-cleavage
45 | GGCCGGCAUGGUCCCAGCCUCCUCGCUGGUGCCGGCUGGGCAACAUUCCGAGGGGACCGUCCCGUCGGUAAUGGCGAAUGGGACCCA [C30U C64G] | 0.653
46 | GGCCGGCAUGGUCCCAGCCUCCUCGCUGGCGCCGGCUGGGCAACAUUCCGAGGGGACCGUCCCCUCGCUAAUGGCGGAUGGGACCCA [G68C A77G] | 0.554
47 | GGCCGGCAUGGUCCCAGCCUCCUCGCUGGCGCCGGCUGGGCGACAUUCCGAGGGGGCCGUCCCCUCGGUAAUGGCGAAUGGGACCCA [A42G A56G] | 0.516
48 | GGCCGGCAUGGUCCCAGCCUCCUCGCUGGCGCCGGCUGGGCAACAUUCCCAGGGGACCGUCCCCUGGGUAAUGGCGAAUGGGACCCA [G50C C66G] | 0.912
49 | GGCCGGCAUGGUCCCAGCCUCCUCGCUGGCGCCGGCUGGGCAACAUUCCGAGCGGACCGUCCCCUCGGUAAUGGCGAAUGGGCCCCA [G53C A83C] | 0.525
50 | GGCCGGCAUGGUCCCAGCCUCCUCGCUGGCGCCGGCUGGGCAACAUUGCCAGGGGACCGUCCCCUCGGUAAUGGCGAAUGGGACCCA [C48G G50C] | 0.939
51 | GGCCGGCAUGGUCCCAGCUUCCUCGCUGGCGCCGGCUGGGCAACAUUCCGAGGGGACCGUCCCCUCGGUAAUGGCGAAUGGGUCCCA [C19U A83U] | 0.148
52 | GGUCGGCAUGGUCCCAGCCUCCUCGCUGGCGCCGGCUGGGCAACAUUCCGAGGGGACGGUCCCCUCGGUAAUGGCGAAUGGGACCCA [C3U C58G] | 0.767
53 | GGCCGGCAUGGUCCCAGCCUCCUCGCUGGCGCCGGCUGGCCAACAUUCCGAGGAGACCGUCCCCUCGGUAAUGGCGAAUGGGACCCA [G40C G54A] | 0.398
54 | GGCCGGCAUGGUCCCAGCCUCCUCGCUGGCGCCGCCUGGGCAACAUUCCGAGGGGACCGUCCCCUCGGUAAUGGCGAAUGGGACCCA [G35C] | 0.254
55 | GGCCGGCAUGGUCCCAGCCUCCUCGAUGGCGCCGGCUGGGCAACAUUCCGAGGGGACCGUCCCCUCGGUAAUGGCGAAUGGGACCCC [C26A A87C] | 0.944
56 | GGCCGGCCUGGUCCCAGCCUCCUCGCUGGCGCCGGCUGGGCAACAUUCCGAGGGGGCCGUCCCCUCGGUAAUGGCGAAUGGGACCCA [A8C A56G] | 0.939
57 | GGCCGGCAUGGUCCCAACCUCCUCGCUGGCGCCGGCUGGGCAACAUUCCGAGGGGACCGUCCCCUCGGUAAUGGCGAAUGGAACCCA [G17A G82A] | 0.272
58 | GGCCGGCAUGGUCCCAGCCUCCUCGCUGGCGCCGGCUGGGCAACAUUCCGAGGGGACCGUCCCCUCGGUAAUGGCGUAUAGGACCCA [A77U G80A] | 0.0923
59 | GGCCGCCAUGGUCCCAGCCUCCUCGCUGGCGCCGGCUGGGCAACAUUCCGAGGGGACCGUCCCCGCGGUAAUGGCGAAUGGGACCCA [G6C U65G] | 0.115
60 | GGCCGGCAUGGUCCCAGCCUCCUCGCUGGCGCCGGCUGGACAACAUUCCGAGGGGACCGUCCCCUCGGUAAUGGCGAGUGGGACCCA [G40A A78G] | 0.795
61 | GGCCGGCAUGGUCCCAGCCUCCUCGCUGGCGCCGGCUGAGCAACAUUCUGAGGGGACCGUCCCCUCGGUAAUGGCGAAUGGGACCCA [G39A C49U] | 0.519
62 | GGCCGGCAUGGUCCCAGCCUCCUCGCUGGCGCCGGCUGGGCAACAUUCGGAGGGGACCGUCCCCUCGGUAAGGGCGAAUGGGACCCA [C49G U72G] | 0.604
63 | GGCCGGCAUGGUACCAGCCUCCUCGCUGGCGCCGGCUGGGCAAUAUUCCGAGGGGACCGUCCCCUCGGUAAUGGCGAAUGGGACCCA [C13A C44U] | 0.0652
64 | GGCCCGCAUGGUCCCAGGCUCCUCGCUGGCGCCGGCUGGGCAACAUUCCGAGGGGACCGUCCCCUCGGUAAUGGCGAAUGGGACCCA [G5C C18G] | 0.262
